From patent US20240228579A1 (Innovent, published 2024)

Target: T1, human C1q (human, UniProt P02745 23-245; P02746 28-253; P02747 29-245)
T1 construct: Bought C1q (Complement Technology); also called C1q antigen
Experiment: BLI (Octet), biotinylated antibody on SA sensor
Protocol: The antibody was diluted to approximately 100 nM, and C1q (Δ099, Complement Technology) was diluted to 40 nM.
Detection was conducted using Fortebio Octet Red96e, and the sensors were arranged according to the positions of the samples. […] After the experiment was completed, KD values were analyzed using ForteBio Octet analysis software, the coordinate axis data were derived, and Graphpad Prism 8 software was used for plotting.

T1 sequence (P02745 23-245 limits assumed, chain 1 of 3): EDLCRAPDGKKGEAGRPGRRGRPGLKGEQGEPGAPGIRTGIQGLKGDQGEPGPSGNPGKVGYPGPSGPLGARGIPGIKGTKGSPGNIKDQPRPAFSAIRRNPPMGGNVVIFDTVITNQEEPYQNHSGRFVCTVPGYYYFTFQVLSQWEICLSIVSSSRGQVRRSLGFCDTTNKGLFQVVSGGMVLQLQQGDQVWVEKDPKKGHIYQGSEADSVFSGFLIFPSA
T1 sequence (P02746 28-253 limits assumed, chain 2 of 3): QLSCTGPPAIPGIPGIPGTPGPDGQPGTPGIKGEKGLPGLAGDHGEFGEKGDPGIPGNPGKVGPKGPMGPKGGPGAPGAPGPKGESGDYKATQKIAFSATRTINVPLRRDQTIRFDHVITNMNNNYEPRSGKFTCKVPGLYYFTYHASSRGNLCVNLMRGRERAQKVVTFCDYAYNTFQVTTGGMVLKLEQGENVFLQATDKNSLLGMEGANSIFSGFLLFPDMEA
T1 sequence (P02747 29-245 limits assumed, chain 3 of 3): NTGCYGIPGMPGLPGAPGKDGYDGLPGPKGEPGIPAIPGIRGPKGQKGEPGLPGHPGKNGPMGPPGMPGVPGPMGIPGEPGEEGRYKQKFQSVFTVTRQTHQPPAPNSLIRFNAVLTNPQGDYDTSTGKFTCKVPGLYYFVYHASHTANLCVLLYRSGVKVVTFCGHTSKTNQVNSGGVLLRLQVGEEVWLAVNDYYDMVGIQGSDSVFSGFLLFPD

| Binder | binding result |
| --- | --- |
| Fcmut-12 (antibody, human IgG2, kappa, IgG2-mut: deletion of 329 and 330 (EU index)) heavy: QVQLVQSGAEVKKPGSSVKVSCKASGYSFSSYNIHWVRQAPGQGLEWMGYIAPFQGDSRYNQKFKGRVTITADKSTSTAYMELSSLRSEDTAVYYCARLNRGNSLDYWGQGTLVTVSSASTKGPSVFPLAPCSRSTSESTAALGCLVKDYFPEPVTVSWNSGALTSGVHTFPAVLQSSGLYSLSSVVTVPSSNFGTQTYTCNVDHKPSNTKVDKTVERKCCVECPPCPAPPVAGPSVFLFPPKPKDTLMISRTPEVTCVVVDVSHEDPEVQFNWYVDGVEVHNAKTKPREEQFNSTFRVVSVLTVVHQDWLNGKEYKCKVSNKGLPIEKTISKTKGQPREPQVYTLPPSREEMTKNQVSLTCLVKGFYPSDISVEWESNGQPENNYKTTPPMLDSDGSFFLYSKLTVDKSRWQQGNVFSCSVMHEALHNHYTQKSLSLSPGK light: not shown | no binding (tested: C1q 40 nM) |
| Fcmut-10 (antibody, human IgG2, kappa, IgG2-mut: deletion of 329 (EU index); anti-claudin18.2 variable regions of Fcmut-01) heavy: QVQLVQSGAEVKKPGSSVKVSCKASGYSFSSYNIHWVRQAPGQGLEWMGYIAPFQGDSRYNQKFKGRVTITADKSTSTAYMELSSLRSEDTAVYYCARLNRGNSLDYWGQGTLVTVSSASTKGPSVFPLAPCSRSTSESTAALGCLVKDYFPEPVTVSWNSGALTSGVHTFPAVLQSSGLYSLSSVVTVPSSNFGTQTYTCNVDHKPSNTKVDKTVERKCCVECPPCPAPPVAGPSVFLFPPKPKDTLMISRTPEVTCVVVDVSHEDPEVQFNWYVDGVEVHNAKTKPREEQFNSTFRVVSVLTVVHQDWLNGKEYKCKVSNKGLAPIEKTISKTKGQPREPQVYTLPPSREEMTKNQVSLTCLVKGFYPSDISVEWESNGQPENNYKTTPPMLDSDGSFFLYSKLTVDKSRWQQGNVFSCSVMHEALHNHYTQKSLSLSPGK light: not shown | no binding (tested: C1q 40 nM) |
| Fcmut-11 (antibody, human IgG2, kappa, IgG2-mut: deletion of 329, G at 330 (EU index)) heavy: QVQLVQSGAEVKKPGSSVKVSCKASGYSFSSYNIHWVRQAPGQGLEWMGYIAPFQGDSRYNQKFKGRVTITADKSTSTAYMELSSLRSEDTAVYYCARLNRGNSLDYWGQGTLVTVSSASTKGPSVFPLAPCSRSTSESTAALGCLVKDYFPEPVTVSWNSGALTSGVHTFPAVLQSSGLYSLSSVVTVPSSNFGTQTYTCNVDHKPSNTKVDKTVERKCCVECPPCPAPPVAGPSVFLFPPKPKDTLMISRTPEVTCVVVDVSHEDPEVQFNWYVDGVEVHNAKTKPREEQFNSTFRVVSVLTVVHQDWLNGKEYKCKVSNKGLGPIEKTISKTKGQPREPQVYTLPPSREEMTKNQVSLTCLVKGFYPSDISVEWESNGQPENNYKTTPPMLDSDGSFFLYSKLTVDKSRWQQGNVFSCSVMHEALHNHYTQKSLSLSPGK light: not shown | no binding (tested: C1q 40 nM) |
| Fcmut-18 (antibody, human IgG4 S228P, kappa, IgG4-mut: deletion of 329 (EU index)) heavy: QVQLVQSGAEVKKPGSSVKVSCKASGYSFSSYNIHWVRQAPGQGLEWMGYIAPFQGDSRYNQKFKGRVTITADKSTSTAYMELSSLRSEDTAVYYCARLNRGNSLDYWGQGTLVTVSSASTKGPSVFPLAPCSRSTSESTAALGCLVKDYFPEPVTVSWNSGALTSGVHTFPAVLQSSGLYSLSSVVTVPSSSLGTKTYTCNVDHKPSNTKVDKRVESKYGPPCPPCPAPEFLGGPSVFLFPPKPKDTLMISRTPEVTCVVVDVSQEDPEVQFNWYVDGVEVHNAKTKPREEQFNSTYRVVSVLTVLHQDWLNGKEYKCKVSNKGLSSIEKTISKAKGQPREPQVYTLPPSQEEMTKNQVSLTCLVKGFYPSDIAVEWESNGQPENNYKTTPPVLDSDGSFFLYSRLTVDKSRWQEGNVFSCSVMHEALHNHYTQKSLSLSLGK light: not shown | no binding (tested: C1q 40 nM) |
| Fcmut-19 (antibody, human IgG4 S228P, kappa, IgG4-mut: deletion of 329, G at 330 (EU index)) heavy: QVQLVQSGAEVKKPGSSVKVSCKASGYSFSSYNIHWVRQAPGQGLEWMGYIAPFQGDSRYNQKFKGRVTITADKSTSTAYMELSSLRSEDTAVYYCARLNRGNSLDYWGQGTLVTVSSASTKGPSVFPLAPCSRSTSESTAALGCLVKDYFPEPVTVSWNSGALTSGVHTFPAVLQSSGLYSLSSVVTVPSSSLGTKTYTCNVDHKPSNTKVDKRVESKYGPPCPPCPAPEFLGGPSVFLFPPKPKDTLMISRTPEVTCVVVDVSQEDPEVQFNWYVDGVEVHNAKTKPREEQFNSTYRVVSVLTVLHQDWLNGKEYKCKVSNKGLGSIEKTISKAKGQPREPQVYTLPPSQEEMTKNQVSLTCLVKGFYPSDIAVEWESNGQPENNYKTTPPVLDSDGSFFLYSRLTVDKSRWQEGNVFSCSVMHEALHNHYTQKSLSLSLGK light: not shown | no binding (tested: C1q 40 nM) |

Results, then the binder that gave them:

| binding result | Binder |
| --- | --- |
| no binding (tested: C1q 40 nM) | Fcmut-16 (antibody, human IgG2, kappa, IgG2-mut: A at 234, deletion of 329 and 330 (EU index)) heavy: QVQLVQSGAEVKKPGSSVKVSCKASGYSFSSYNIHWVRQAPGQGLEWMGYIAPFQGDSRYNQKFKGRVTITADKSTSTAYMELSSLRSEDTAVYYCARLNRGNSLDYWGQGTLVTVSSASTKGPSVFPLAPCSRSTSESTAALGCLVKDYFPEPVTVSWNSGALTSGVHTFPAVLQSSGLYSLSSVVTVPSSNFGTQTYTCNVDHKPSNTKVDKTVERKCCVECPPCPAPPAAGPSVFLFPPKPKDTLMISRTPEVTCVVVDVSHEDPEVQFNWYVDGVEVHNAKTKPREEQFNSTFRVVSVLTVVHQDWLNGKEYKCKVSNKGLPIEKTISKTKGQPREPQVYTLPPSREEMTKNQVSLTCLVKGFYPSDISVEWESNGQPENNYKTTPPMLDSDGSFFLYSKLTVDKSRWQQGNVFSCSVMHEALHNHYTQKSLSLSPGK light: not shown |
| no binding (tested: C1q 40 nM) | Fcmut-14 (antibody, human IgG2, kappa, IgG2-mut: A at 234, deletion of 329 (EU index)) heavy: QVQLVQSGAEVKKPGSSVKVSCKASGYSFSSYNIHWVRQAPGQGLEWMGYIAPFQGDSRYNQKFKGRVTITADKSTSTAYMELSSLRSEDTAVYYCARLNRGNSLDYWGQGTLVTVSSASTKGPSVFPLAPCSRSTSESTAALGCLVKDYFPEPVTVSWNSGALTSGVHTFPAVLQSSGLYSLSSVVTVPSSNFGTQTYTCNVDHKPSNTKVDKTVERKCCVECPPCPAPPAAGPSVFLFPPKPKDTLMISRTPEVTCVVVDVSHEDPEVQFNWYVDGVEVHNAKTKPREEQFNSTFRVVSVLTVVHQDWLNGKEYKCKVSNKGLAPIEKTISKTKGQPREPQVYTLPPSREEMTKNQVSLTCLVKGFYPSDISVEWESNGQPENNYKTTPPMLDSDGSFFLYSKLTVDKSRWQQGNVFSCSVMHEALHNHYTQKSLSLSPGK light: not shown |
| no binding (tested: C1q 40 nM) | Fcmut-15 (antibody, human IgG2, kappa, IgG2-mut: A at 234, deletion of 329, G at 330 (EU index)) heavy: QVQLVQSGAEVKKPGSSVKVSCKASGYSFSSYNIHWVRQAPGQGLEWMGYIAPFQGDSRYNQKFKGRVTITADKSTSTAYMELSSLRSEDTAVYYCARLNRGNSLDYWGQGTLVTVSSASTKGPSVFPLAPCSRSTSESTAALGCLVKDYFPEPVTVSWNSGALTSGVHTFPAVLQSSGLYSLSSVVTVPSSNFGTQTYTCNVDHKPSNTKVDKTVERKCCVECPPCPAPPAAGPSVFLFPPKPKDTLMISRTPEVTCVVVDVSHEDPEVQFNWYVDGVEVHNAKTKPREEQFNSTFRVVSVLTVVHQDWLNGKEYKCKVSNKGLGPIEKTISKTKGQPREPQVYTLPPSREEMTKNQVSLTCLVKGFYPSDISVEWESNGQPENNYKTTPPMLDSDGSFFLYSKLTVDKSRWQQGNVFSCSVMHEALHNHYTQKSLSLSPGK light: not shown |
| no binding (tested: C1q 40 nM) | Fcmut-13 (antibody, human IgG2, kappa, IgG2-mut: A at 234 (EU index)) heavy: QVQLVQSGAEVKKPGSSVKVSCKASGYSFSSYNIHWVRQAPGQGLEWMGYIAPFQGDSRYNQKFKGRVTITADKSTSTAYMELSSLRSEDTAVYYCARLNRGNSLDYWGQGTLVTVSSASTKGPSVFPLAPCSRSTSESTAALGCLVKDYFPEPVTVSWNSGALTSGVHTFPAVLQSSGLYSLSSVVTVPSSNFGTQTYTCNVDHKPSNTKVDKTVERKCCVECPPCPAPPAAGPSVFLFPPKPKDTLMISRTPEVTCVVVDVSHEDPEVQFNWYVDGVEVHNAKTKPREEQFNSTFRVVSVLTVVHQDWLNGKEYKCKVSNKGLPAPIEKTISKTKGQPREPQVYTLPPSREEMTKNQVSLTCLVKGFYPSDISVEWESNGQPENNYKTTPPMLDSDGSFFLYSKLTVDKSRWQQGNVFSCSVMHEALHNHYTQKSLSLSPGK light: not shown |
